Measurements taken from patent US6713265 (SYNAPTIC PHARMACEUTICAL, dated 2004).
Where two headings read alike, the source gives them in different places. Each block holds one binder with its values, some of them ahead of it. Ends that are not written are not given here.

Assays:
[1] = target: T1, rat Y1 receptor (rat, UniProt P21555 1-382); experiment: 125I-PYY displacement, COS-7 membranes
T1 construct: whole, on cells; also called rY1
T1 sequence (looked up): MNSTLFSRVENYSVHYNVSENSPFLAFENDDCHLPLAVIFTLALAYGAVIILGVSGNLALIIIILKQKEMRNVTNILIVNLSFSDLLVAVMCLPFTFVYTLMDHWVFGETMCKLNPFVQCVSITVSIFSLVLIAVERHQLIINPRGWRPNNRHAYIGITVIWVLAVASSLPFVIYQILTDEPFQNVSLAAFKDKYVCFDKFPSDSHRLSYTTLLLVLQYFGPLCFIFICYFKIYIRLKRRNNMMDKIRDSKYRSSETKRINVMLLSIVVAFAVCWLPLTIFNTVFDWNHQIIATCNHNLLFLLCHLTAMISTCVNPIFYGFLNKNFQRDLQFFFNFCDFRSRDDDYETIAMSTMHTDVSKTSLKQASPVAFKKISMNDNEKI

[2] = target: T2, rat Y2 receptor (rat, UniProt Q9ERC0 1-381); experiment: 125I-PYY displacement, COS-7 membranes
T2 construct: whole, on cells; also called rY2
T2 sequence: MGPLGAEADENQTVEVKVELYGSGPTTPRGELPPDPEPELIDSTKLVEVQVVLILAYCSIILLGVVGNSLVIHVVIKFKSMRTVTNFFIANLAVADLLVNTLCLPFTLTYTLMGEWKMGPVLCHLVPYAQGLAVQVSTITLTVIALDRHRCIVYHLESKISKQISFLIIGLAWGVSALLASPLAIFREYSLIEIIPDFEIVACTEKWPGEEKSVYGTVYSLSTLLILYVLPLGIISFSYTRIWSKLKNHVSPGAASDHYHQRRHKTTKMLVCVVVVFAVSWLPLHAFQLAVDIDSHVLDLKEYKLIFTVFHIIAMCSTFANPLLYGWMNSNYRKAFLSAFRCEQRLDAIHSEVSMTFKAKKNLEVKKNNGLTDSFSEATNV

[3] = target: T3, canine Y5 receptor (canine, UniProt O62729 1-446); experiment: 125I-PYY displacement, COS-7 membranes
T3 construct: Transiently expressed in COS-7 cells; also called canine (beagle) Y5; BO11
T3 sequence: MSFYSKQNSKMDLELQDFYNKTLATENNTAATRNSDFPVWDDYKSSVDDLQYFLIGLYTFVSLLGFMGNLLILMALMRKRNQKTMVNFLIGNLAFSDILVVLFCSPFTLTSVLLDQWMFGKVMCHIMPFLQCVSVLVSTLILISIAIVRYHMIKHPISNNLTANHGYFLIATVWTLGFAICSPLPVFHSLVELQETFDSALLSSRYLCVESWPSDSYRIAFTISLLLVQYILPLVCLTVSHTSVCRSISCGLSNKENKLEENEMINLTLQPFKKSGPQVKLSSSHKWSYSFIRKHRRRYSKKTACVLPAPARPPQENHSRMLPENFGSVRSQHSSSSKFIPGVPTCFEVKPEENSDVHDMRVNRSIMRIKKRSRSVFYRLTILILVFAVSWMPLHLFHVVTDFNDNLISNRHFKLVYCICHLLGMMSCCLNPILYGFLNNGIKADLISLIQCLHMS

[4] = target: T4, rat hypothalamic Y5 receptor (rat, UniProt Q63634 1-445); experiment: 125I-PYY displacement, COS-7 membranes
T4 construct: Expressed transiently in COS-7 or stably in 293 cells; also called rat Y5; CG-18
T4 sequence: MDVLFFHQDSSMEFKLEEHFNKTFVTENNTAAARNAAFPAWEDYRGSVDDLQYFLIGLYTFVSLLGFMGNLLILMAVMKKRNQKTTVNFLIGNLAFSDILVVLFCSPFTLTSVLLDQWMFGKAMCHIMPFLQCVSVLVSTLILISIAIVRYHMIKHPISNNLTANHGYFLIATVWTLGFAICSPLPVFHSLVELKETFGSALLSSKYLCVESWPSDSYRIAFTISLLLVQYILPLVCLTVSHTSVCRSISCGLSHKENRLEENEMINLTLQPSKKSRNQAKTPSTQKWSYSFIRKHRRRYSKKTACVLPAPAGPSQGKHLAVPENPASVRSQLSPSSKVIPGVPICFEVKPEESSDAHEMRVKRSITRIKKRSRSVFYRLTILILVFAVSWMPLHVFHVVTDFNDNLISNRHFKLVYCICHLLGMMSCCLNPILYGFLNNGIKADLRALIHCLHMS

[5] = target: T5, rat Y4 receptor (rat, UniProt Q63447 1-375); experiment: 125I-PYY displacement, COS-7 membranes
T5 construct: whole, on cells; also called rY4
T5 sequence (Q63447 whole entry): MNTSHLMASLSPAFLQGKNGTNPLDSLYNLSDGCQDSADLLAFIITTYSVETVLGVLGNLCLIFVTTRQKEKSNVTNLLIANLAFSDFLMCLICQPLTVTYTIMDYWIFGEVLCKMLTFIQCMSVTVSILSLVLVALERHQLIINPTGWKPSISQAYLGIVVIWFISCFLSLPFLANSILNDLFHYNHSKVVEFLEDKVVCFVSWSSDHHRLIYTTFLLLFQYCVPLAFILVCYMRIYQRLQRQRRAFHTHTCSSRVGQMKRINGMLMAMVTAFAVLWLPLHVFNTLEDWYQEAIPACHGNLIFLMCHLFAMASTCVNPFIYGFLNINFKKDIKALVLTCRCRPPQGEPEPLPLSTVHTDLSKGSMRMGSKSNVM

[6] = target: T4, rat hypothalamic Y5 receptor; experiment: 125I-PYY displacement, COS-7 membranes; remark: listed apart in the source
[7] = target: T6, human Y5 receptor (human, UniProt Q15761 1-445); experiment: 125I-PYY displacement, COS-7 membranes
T6 construct: also called CG-19; hY5
T6 sequence: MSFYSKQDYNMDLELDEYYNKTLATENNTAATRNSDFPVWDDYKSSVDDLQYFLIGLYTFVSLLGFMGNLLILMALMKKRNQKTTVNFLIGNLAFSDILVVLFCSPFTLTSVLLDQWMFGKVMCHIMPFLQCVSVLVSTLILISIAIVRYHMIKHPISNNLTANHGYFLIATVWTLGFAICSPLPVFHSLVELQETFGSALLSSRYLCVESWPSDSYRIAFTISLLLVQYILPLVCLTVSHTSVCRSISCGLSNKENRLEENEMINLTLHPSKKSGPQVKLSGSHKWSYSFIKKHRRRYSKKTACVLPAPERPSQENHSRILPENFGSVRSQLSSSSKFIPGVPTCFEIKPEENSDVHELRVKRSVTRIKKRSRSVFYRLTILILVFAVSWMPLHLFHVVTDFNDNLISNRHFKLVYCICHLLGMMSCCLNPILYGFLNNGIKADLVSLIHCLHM

[8] = target: T6, human Y5 receptor; experiment: 125I-PYY3-36 displacement, LM(tk-) membranes
[9] = target: T6, human Y5 receptor; experiment: cell-based or functional assay
[10] = target: T6, human Y5 receptor; experiment: 125I-PYY displacement, COS-7 membranes; remark: listed apart in the source
[11] = target: T7, human Y2 receptor (human, UniProt P49146 1-381); experiment: 125I-PYY displacement, COS-7 membranes
T7 construct: whole, on cells
T7 sequence (looked up): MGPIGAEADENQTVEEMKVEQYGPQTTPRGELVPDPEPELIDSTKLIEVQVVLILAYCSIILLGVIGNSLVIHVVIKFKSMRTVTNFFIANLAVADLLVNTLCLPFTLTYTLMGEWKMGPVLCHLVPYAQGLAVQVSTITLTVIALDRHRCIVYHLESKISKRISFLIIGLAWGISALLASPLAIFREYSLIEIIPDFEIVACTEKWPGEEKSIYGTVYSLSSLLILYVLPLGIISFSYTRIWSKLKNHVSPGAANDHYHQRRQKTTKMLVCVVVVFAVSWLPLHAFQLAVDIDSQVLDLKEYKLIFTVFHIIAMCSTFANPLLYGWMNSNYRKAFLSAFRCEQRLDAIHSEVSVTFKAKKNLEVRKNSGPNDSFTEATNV

[12] = target: T7, human Y2 receptor; experiment: 125I-PYY displacement, COS-7 membranes; remark: listed apart in the source
[13] = target: T4, rat hypothalamic Y5 receptor; experiment: cell-based or functional assay
[14] = target: T5, rat Y4 receptor; experiment: 125I-PYY displacement, COS-7 membranes; remark: listed apart in the source
[15] = target: T4, rat hypothalamic Y5 receptor; experiment: 125I-PYY displacement, COS-7 membranes; remark: listed apart in the source
[16] = target: T8, human Y1 receptor (human, UniProt P25929 1-384); experiment: 125I-PYY displacement, COS-7 membranes
T8 construct: whole, on cells; stably transfected 293 cells for function
T8 sequence (looked up): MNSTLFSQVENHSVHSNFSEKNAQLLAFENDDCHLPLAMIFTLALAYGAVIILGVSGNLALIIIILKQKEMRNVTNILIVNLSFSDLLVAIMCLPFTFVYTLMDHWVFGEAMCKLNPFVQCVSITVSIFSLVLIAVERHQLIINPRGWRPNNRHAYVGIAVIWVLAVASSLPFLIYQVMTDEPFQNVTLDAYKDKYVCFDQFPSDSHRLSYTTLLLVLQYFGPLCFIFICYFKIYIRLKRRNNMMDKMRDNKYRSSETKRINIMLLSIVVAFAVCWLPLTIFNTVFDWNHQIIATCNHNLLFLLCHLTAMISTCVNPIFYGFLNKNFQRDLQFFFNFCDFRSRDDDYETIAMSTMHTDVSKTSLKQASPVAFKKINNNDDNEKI

[17] = target: T9, human Y4 receptor (human, UniProt P50391 1-375); experiment: 125I-PYY displacement, COS-7 membranes
T9 construct: whole, on cells
T9 sequence (P50391 whole entry): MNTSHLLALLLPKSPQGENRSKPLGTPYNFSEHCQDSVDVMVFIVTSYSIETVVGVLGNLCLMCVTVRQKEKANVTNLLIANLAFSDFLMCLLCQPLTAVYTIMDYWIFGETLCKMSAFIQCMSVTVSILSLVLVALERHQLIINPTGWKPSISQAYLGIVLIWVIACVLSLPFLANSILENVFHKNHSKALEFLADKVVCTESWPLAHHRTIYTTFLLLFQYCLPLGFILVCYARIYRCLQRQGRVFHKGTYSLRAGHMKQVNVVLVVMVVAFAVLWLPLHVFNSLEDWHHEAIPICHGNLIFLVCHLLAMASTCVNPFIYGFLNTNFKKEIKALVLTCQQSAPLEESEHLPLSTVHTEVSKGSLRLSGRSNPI

[18] = target: T8, human Y1 receptor; experiment: 125I-PYY displacement, COS-7 membranes; remark: listed apart in the source
[19] = target: T9, human Y4 receptor; experiment: 125I-PYY displacement, COS-7 membranes; remark: listed apart in the source

- Ki [1]: 720 nM
Binder: APSEPHHPGDQATQDQLAQYYSDLYQYITFVTRPRF (ends and bridges not checked) [frog PP (rana temporaria)]

- Ki [1]: 190 nM
- Ki [2]: 31 nM
- Ki [3]: 120 nM
B1: porcine NPY13-36 (peptide, UniProt P01304 22-45, looked up)
peptide: PAEDLARYYSALRHYINLITRQRY
notes: range 13-36; Range counted on the mature peptide; also called NPY13-36, porcine

- Ki [4]: 260 nM
- Ki [1]: 140 nM
- Ki [2]: 35 nM
- Ki [5]: 200 nM
- Ki [6]: 260 nM
- Ki [7]: 300 nM
- Ki [8]: 180 nM
B2: porcine NPY16-36 (peptide, UniProt P01304 25-45, looked up)
peptide: DLARYYSALRHYINLITRQRY
notes: range 16-36; Range counted on the mature peptide

- EC50, inhibition of forskolin-stimulated cAMP accumulation, LM(tk-) cells [9]: 2 nM
- Ki [7]: 2.1 nM
- Ki [10]: 2.1 nM
B3: human PP2-36 (peptide, UniProt P01298 31-65, looked up)
peptide: PLEPVYPGDNATPEQMAQYAADLRRYINMLTRPRY
notes: range 2-36; Range counted on the mature peptide

- Ki [11]: 380 nM
- Ki [12]: 380 nM
B4: porcine NPY26-36 (peptide, UniProt P01304 35-45, looked up)
peptide: HYINLITRQRY
notes: range 26-36; Range counted on the mature peptide

- EC50, inhibition of forskolin-stimulated cAMP accumulation, 293 cells [13]: 130 nM
- Ki [14]: < 0.2 nM
- Ki [15]: 180 nM
- Ki [16]: 450 nM
- Ki [17]: 0.16 nM
- Ki [4]: 230 nM
- Ki [6]: 230 nM
- Ki [7]: 630 nM
- Ki [10]: 630 nM
- Ki [18]: 450 nM
- Ki [19]: 0.16 nM
- Ki [3]: 160 nM
- Ki [8]: 130 nM
Binder: APLEPMYPGDYATHEQRAQYETQLRRYINTLTRPRY (peptide, UniProt P06303 30-65, looked up, mature; also called PP, rat) [rat PP]

- Ki [1]: 130 nM
B5: human PYY13-36 (peptide, UniProt P10082 41-64, looked up)
peptide: SPEELNRYYASLRHYLNLVTRQRY
notes: range 13-36; Range counted on the mature peptide
